{"source": "patent US20220370630A1", "about": "“TRANSMUCOSAL DELIVERY SYSTEM FOR PHARMACEUTICAL ACTIVE INGREDIENT TO SUBMUCOSAL TISSUE OF BLADDER” (SEIKAGAKU CORPORATION, priority 2019, published 2022)", "key": {"[1]": {"test": "Release test: release ratio of API from the derivative in phosphate buffer solution pH 7.4 at 36° C., HPLC", "type": "physicochemical", "conditions": "phosphate buffer pH 7.4, 36° C.; for Release ratio of API: 5 mg/10 mL; for Release rate: slope of release ratio against time", "procedure": "In Examples pertaining to a release test, a release ratio of a pharmaceutical active ingredient (API) from a chondroitin sulfate derivative and a hyaluronic acid derivative, each of which was not fluorescently labeled was evaluated as follows. […] The release ratio was calculated based on the ratio of peak areas of HPLC corresponding to the amount of API in the derivative and the amount of released API using a size-exclusion chromatography column (TSKgel α, manufactured by Tosoh Corporation). Release ratio (%)=peak area of released API/(peak area of API in each derivative+peak area of released API)×100 Also with respect to the hyaluronic acid derivatives of Comparative Examples 2 to 3, evaluation was performed in the same manner as for Examples."}, "[2]": {"test": "Evaluation using rat 2: concentration of TA in the bladder after administration to the lumen of the bladder, LC/MS/MS", "type": "in vivo", "conditions": "bladder homogenate on day 7 after administration; TA dose 0.8 mg/animal into the bladder; hydrochloric acid-pretreated rat; read-out: Concentration of API (TA)", "quoted_text": "In both Example and Comparative Example, the dose of TA was set to 0.8 mg/animal.\nThe pretreatment was performed in the same manner as in the evaluation 1.\nOne day after the pretreatment, 0.2 mL of each test substance was transurethrally administered into the bladder using a catheter (PE50) under isoflurane inhalation anesthesia and allowed to stay there for 30 minutes.\nSeven days after administering the test substance, the animal was laparotomized under isoflurane inhalation anesthesia and exsanguinated and euthanized by cutting the abdominal aorta, and then, the bladder was collected. The bladder was homogenized in a mixed solution of methanol/buffer solution (10 mmol/L ammonium formate buffer solution (pH 6.0):methanol=3:2 (v/v)), and a measurement sample was prepared so that the tissue concentration was 0.05 g/mL.\nSubsequently, the amount of TA in the measurement sample was quantitatively determined by an LC/MS/MS analysis under the following conditions using triamcinolone-6-d1 acetonide-d6 as an internal standard substance."}}}
{"compound": "2-Aminoethyl-Dehydrocholate-Introduced CS [CS-DEH-conjugate]", "values": [{"measurement": "Release ratio of API", "setting": "[1]; elapsed time 0 days", "value": 0.45, "unit": "%"}, {"measurement": "Release ratio of API", "setting": "[1]; elapsed time 1 day", "value": 0.53, "unit": "%"}, {"measurement": "Release ratio of API", "setting": "[1]; elapsed time 2 days", "value": 0.52, "unit": "%"}, {"measurement": "Release ratio of API", "setting": "[1]; elapsed time 3 days", "value": 0.66, "unit": "%"}, {"measurement": "Release ratio of API", "setting": "[1]; elapsed time 4 days", "value": 0.65, "unit": "%"}, {"measurement": "Release ratio of API", "setting": "[1]; elapsed time 5 days", "value": 0.78, "unit": "%"}, {"measurement": "Release ratio of API", "setting": "[1]; elapsed time 6 days", "value": 1.29, "unit": "%"}, {"measurement": "Release ratio of API", "setting": "[1]; elapsed time 7 days", "value": 1.42, "unit": "%"}, {"measurement": "Release rate", "setting": "[1]", "value": 0.14, "unit": "%/day"}]}
{"compound": "2-Aminoethyl-Diclofenac-Introduced CS [CS-DIC-conjugate]", "values": [{"measurement": "Release ratio of API", "setting": "[1]; elapsed time 0 days", "value": 0.00, "unit": "%"}, {"measurement": "Release ratio of API", "setting": "[1]; elapsed time 1 day", "value": 0.95, "unit": "%"}, {"measurement": "Release ratio of API", "setting": "[1]; elapsed time 2 days", "value": 2.06, "unit": "%"}, {"measurement": "Release ratio of API", "setting": "[1]; elapsed time 3 days", "value": 3.13, "unit": "%"}, {"measurement": "Release ratio of API", "setting": "[1]; elapsed time 4 days", "value": 4.11, "unit": "%"}, {"measurement": "Release ratio of API", "setting": "[1]; elapsed time 5 days", "value": 5.40, "unit": "%"}, {"measurement": "Release ratio of API", "setting": "[1]; elapsed time 6 days", "value": 6.55, "unit": "%"}, {"measurement": "Release ratio of API", "setting": "[1]; elapsed time 7 days", "value": 7.62, "unit": "%"}, {"measurement": "Release rate", "setting": "[1]", "value": 1.10, "unit": "%/day"}]}
{"compound": "2-Aminoethyl-Probenecid-Introduced CS [CS-PRO-conjugate]", "values": [{"measurement": "Release ratio of API", "setting": "[1]; elapsed time 0 days", "value": 0.31, "unit": "%"}, {"measurement": "Release ratio of API", "setting": "[1]; elapsed time 1 day", "value": 0.83, "unit": "%"}, {"measurement": "Release ratio of API", "setting": "[1]; elapsed time 2 days", "value": 1.43, "unit": "%"}, {"measurement": "Release ratio of API", "setting": "[1]; elapsed time 3 days", "value": 2.13, "unit": "%"}, {"measurement": "Release ratio of API", "setting": "[1]; elapsed time 4 days", "value": 2.91, "unit": "%"}, {"measurement": "Release ratio of API", "setting": "[1]; elapsed time 5 days", "value": 3.63, "unit": "%"}, {"measurement": "Release ratio of API", "setting": "[1]; elapsed time 6 days", "value": 4.56, "unit": "%"}, {"measurement": "Release ratio of API", "setting": "[1]; elapsed time 7 days", "value": 5.29, "unit": "%"}, {"measurement": "Release rate", "setting": "[1]", "value": 0.72, "unit": "%/day"}]}
{"compound": "3-Aminopropyl Cinnamate-Introduced HA [HA-CIN-conjugate, reference compound]", "values": [{"measurement": "Release ratio of API", "setting": "[1]; elapsed time 0 days", "value": 0.00, "unit": "%"}, {"measurement": "Release ratio of API", "setting": "[1]; elapsed time 1 day", "value": 0.00, "unit": "%"}, {"measurement": "Release ratio of API", "setting": "[1]; elapsed time 2 days", "value": 0.00, "unit": "%"}, {"measurement": "Release ratio of API", "setting": "[1]; elapsed time 3 days", "value": 0.00, "unit": "%"}, {"measurement": "Release ratio of API", "setting": "[1]; elapsed time 4 days", "value": 0.00, "unit": "%"}, {"measurement": "Release ratio of API", "setting": "[1]; elapsed time 5 days", "value": 0.00, "unit": "%"}, {"measurement": "Release ratio of API", "setting": "[1]; elapsed time 6 days", "value": 0.00, "unit": "%"}, {"measurement": "Release ratio of API", "setting": "[1]; elapsed time 7 days", "value": 0.00, "unit": "%"}, {"measurement": "Release of API (result in words)", "setting": "[1]; 1 week", "value": "release of cinnamic acid was not observed"}, {"measurement": "Release rate", "setting": "[1]", "value": 0.00, "unit": "%/day"}]}
{"compound": "CC1(C)O[C@@H]2C[C@H]3[C@@H]4CCC5=CC(=O)C=C[C@]5(C)[C@@]4(F)[C@@H](O)C[C@]3(C)[C@]2(C(=O)CO)O1", "note": "[TA, triamcinolone acetonide]", "values": [{"measurement": "concentration at 7 days", "setting": "[2]", "value": 4.09, "unit": "ng/g"}]}
{"compound": "β-alanyl-hydroxyzine-introduced CS [CS-HYD-conjugate]", "values": [{"measurement": "Release ratio of API", "setting": "[1]; elapsed time 0 days", "value": 0.00, "unit": "%"}, {"measurement": "Release ratio of API", "setting": "[1]; elapsed time 1 day", "value": 0.65, "unit": "%"}, {"measurement": "Release ratio of API", "setting": "[1]; elapsed time 2 days", "value": 1.48, "unit": "%"}, {"measurement": "Release ratio of API", "setting": "[1]; elapsed time 3 days", "value": 2.38, "unit": "%"}, {"measurement": "Release ratio of API", "setting": "[1]; elapsed time 4 days", "value": 3.35, "unit": "%"}, {"measurement": "Release ratio of API", "setting": "[1]; elapsed time 5 days", "value": 4.30, "unit": "%"}, {"measurement": "Release ratio of API", "setting": "[1]; elapsed time 6 days", "value": 5.24, "unit": "%"}, {"measurement": "Release ratio of API", "setting": "[1]; elapsed time 7 days", "value": 6.05, "unit": "%"}, {"measurement": "Release rate", "setting": "[1]", "value": 0.89, "unit": "%/day"}]}
